Results from paper PMC6684614, “Histone chaperone exploits intrinsic disorder to switch acetylation specificity” (Nature Communications, 2019).

Target: the molecule itself
Test: solution structural model from NMR PRE distance restraints and SANS (M3 data-driven docking with HADDOCK); 145 PRE-derived distance restraints and six SANS curves; building blocks PDB 2hue and MD conformers of PDB 3q66; 33 structures, pairwise backbone RMSD 2.0 A; 50 mM citrate pH 6.5, 150 mM NaCl, 298 K

B1: Vps75 (vacuolar protein sorting-associated protein 75) homodimer (natural protein, S. cerevisiae, UniProt P53853 1-264, looked up)
chain: MMSDQENENEHAKAFLGLAKCEEEVDAIEREVELYRLNKMKPVYEKRDAYIDEIAEFWKIVLSQHVSFANYIRASDFKYIDTIDKIKVEWLALESEMYDTRDFSITFHFHGIEGDFKEQQVTKVFQIKKGKDDQEDGILTSEPVPIEWPQSYDSINPDLIKDKRSPEGKKKYRQGMKTIFGWFRWTGLKPGKEFPHGDSLASLFSEEIYPFCVKYYAEAQRDLEDEEGESGLSADGDSEDDDGSLGEVDLPLSDEEPSSKKRKV
notes: Vps75, S. cerevisiae, full length; the C-terminal acidic domain (CTAD) is 226-264; isotope-labelled (ILV methyl, 15N, 2H) in some samples; also called Vps75_(2); ScVps75; source: E. coli BL21(DE3), purified (IMAC, TEV cleavage, ion exchange, SEC); not shown: His6, N-terminal, cleaved
- stoichiometry N: 2 subunits
